A word on the Km: it is the concentration of substrate that gives half-maximal velocity. Usually kcat stands for the maximal rate divided by the concentration of active sites.

For data set [1], the target named is T1, MgGalT7 (Magallana gigas, UniProt Z9LX56G651).
T1 sequence (Z9LX56G651 34-312): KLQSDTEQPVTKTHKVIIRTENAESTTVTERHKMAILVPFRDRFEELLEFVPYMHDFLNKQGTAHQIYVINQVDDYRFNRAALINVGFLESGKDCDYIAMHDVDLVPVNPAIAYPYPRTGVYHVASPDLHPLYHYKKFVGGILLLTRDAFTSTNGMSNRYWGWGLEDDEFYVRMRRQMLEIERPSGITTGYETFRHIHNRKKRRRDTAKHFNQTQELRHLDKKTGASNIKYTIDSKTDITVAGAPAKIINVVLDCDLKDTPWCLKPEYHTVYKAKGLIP
The data set is described as follows: coupled galactosylation with MgUGE, HPLC-ESI-MS. In kind it is biochemical. To be noted: acceptor 10 mM; 15 mM UDP-glucose converted to UDP-galactose by MgUGE, 1 mM MnCl2, 50 mM Tris-HCl pH 8.0, 37 °C, 24 h.

Substrate in data set [2]: O=c1ccn([C@@H]2O[C@H](COP(=O)(O)OP(=O)(O)O[C@H]3O[C@H](CO)[C@H](O)[C@H](O)[C@H]3O)[C@@H](O)[C@H]2O)c(=O)[nH]1
The data set is described as follows: purified protein. In kind it is biochemical, Magallana gigas. Particulars: 50 mM Tris-HCl pH 8.0, 22 °C, UDP-galactose 10 µM to 2 mM.

For `O=[N+]([O-])c1ccc(O[C@H]2OC[C@@H](O)[C@H](O)[C@H]2O)cc1` [pNP-xylose], the “coupled galactosylation with MgUGE, HPLC-ESI-MS” value in data set [1] is on record as “(MgGalT7), allowing the galactosylation of the model substrate para-nitrophenol xylose (pNP-xylose)”.

B1: MgUGE (Magallana gigas) (protein)
chain: MGDSCILVTGGAGFVGSHSVIELIEAGYSVVVMDNLANASMESIKRVEEITGKSIPSYSVDLLDKPALSDLFNKHKFTSVIHFAGLKAVGESCQLPLLYYKNNVGGTVNLLEVMKEKGVKNLIFSSSATVYGSPQYLPIDEKHPVGGCTNPYGKTKYFIEEILRDLHKAEPDWNIIMLRYFNPVGAHKSGKIGEDPQGIPNNLMPFIAQVAVGKRAELSVYGSDYDTPDGTGVRDYIHVVDLAQGHVAAQKKIEKKCGCKVYNLGTGKGYSVIEMAKAFEEASGKPIPFKKVDRRAGDVASVYGNADLAKEELGWSASRDLKQMCEDTWRWQSSNPNGFRK
notes: forward primer encodes N-terminus MGDSCIL
As to B1, in data set [2], the Km was 1600 ± 100 µM and the kcat was 2.23 ± 0.2 s⁻¹.

Source of the values: PMC6032241, “UDP-Glucose 4-Epimerase and β-1,4-Galactosyltransferase from the Oyster Magallana gigas as Valuable Biocatalysts for the Production of Galactosylated Products” (International Journal of Molecular Sciences, 2018).
